This is an account of results in doi:10.1101/2020.01.12.903617, “The peptide sensor motif stabilizes the outward-facing conformation of TmrAB” (bioRxiv, 2020).

One experiment has as its target T1, TmrAB R132A^TmrA (Thermus thermophilus, UniProt Q72J05 1-600; Q72J04 1-578, R132A).
T1 construct: TmrA, Thermus thermophilus, the chain of TmrAB with the canonical Walker B motif; TmrB, Thermus thermophilus, the chain of TmrAB with the non-canonical Walker B motif
T1 sequence 1: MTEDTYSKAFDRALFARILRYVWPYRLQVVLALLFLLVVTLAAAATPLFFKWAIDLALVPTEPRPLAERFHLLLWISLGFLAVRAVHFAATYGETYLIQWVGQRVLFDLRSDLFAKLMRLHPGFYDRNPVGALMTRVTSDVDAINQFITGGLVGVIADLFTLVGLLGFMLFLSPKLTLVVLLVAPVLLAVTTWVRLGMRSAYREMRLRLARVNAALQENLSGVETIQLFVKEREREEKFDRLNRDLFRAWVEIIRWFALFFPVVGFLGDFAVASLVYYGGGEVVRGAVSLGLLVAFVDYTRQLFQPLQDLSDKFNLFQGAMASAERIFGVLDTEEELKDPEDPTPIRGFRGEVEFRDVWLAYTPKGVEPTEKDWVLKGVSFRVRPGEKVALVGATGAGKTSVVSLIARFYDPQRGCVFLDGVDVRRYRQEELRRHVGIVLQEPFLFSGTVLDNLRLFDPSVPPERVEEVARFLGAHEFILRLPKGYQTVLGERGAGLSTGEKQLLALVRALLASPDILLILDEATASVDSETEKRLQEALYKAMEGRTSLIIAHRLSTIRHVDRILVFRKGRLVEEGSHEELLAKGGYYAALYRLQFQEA
T1 sequence 2: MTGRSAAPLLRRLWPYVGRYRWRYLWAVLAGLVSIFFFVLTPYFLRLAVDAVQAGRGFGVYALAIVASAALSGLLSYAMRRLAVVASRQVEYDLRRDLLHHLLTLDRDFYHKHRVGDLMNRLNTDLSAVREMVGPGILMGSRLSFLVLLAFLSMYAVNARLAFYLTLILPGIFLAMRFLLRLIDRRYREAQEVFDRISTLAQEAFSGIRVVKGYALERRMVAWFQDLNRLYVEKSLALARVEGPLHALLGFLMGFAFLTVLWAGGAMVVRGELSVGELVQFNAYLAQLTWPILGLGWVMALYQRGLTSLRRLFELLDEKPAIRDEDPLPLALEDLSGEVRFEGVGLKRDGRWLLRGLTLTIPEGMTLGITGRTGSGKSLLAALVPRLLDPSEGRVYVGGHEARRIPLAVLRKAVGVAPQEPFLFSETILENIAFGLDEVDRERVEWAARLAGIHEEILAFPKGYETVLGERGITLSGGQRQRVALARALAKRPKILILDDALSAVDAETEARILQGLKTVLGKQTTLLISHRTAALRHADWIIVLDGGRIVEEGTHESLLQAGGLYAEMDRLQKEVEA
Put plainly: fluorescence polarisation; 1.7 uM TmrAB with 50 nM RRY(C^Fluorescein)KSTEL in SEC buffer (20 mM HEPES, 150 mM NaCl, pH 7, 0.05% ß-DDM), 15 minutes on ice, in the absence or presence of 5 mM ATP and 10 mM MgCl2; read at 25°C (the results say 4°C); signal normalized to WT without ATP. The note with it: both partners purified.

The next experiment has as its target T2, TmrAB D140A^TmrA (Thermus thermophilus, UniProt Q72J05 1-600; Q72J04 1-578, D140A).
T2 construct: TmrA, Thermus thermophilus, the chain of TmrAB with the canonical Walker B motif; TmrB, Thermus thermophilus, the chain of TmrAB with the non-canonical Walker B motif
T2 sequence 1: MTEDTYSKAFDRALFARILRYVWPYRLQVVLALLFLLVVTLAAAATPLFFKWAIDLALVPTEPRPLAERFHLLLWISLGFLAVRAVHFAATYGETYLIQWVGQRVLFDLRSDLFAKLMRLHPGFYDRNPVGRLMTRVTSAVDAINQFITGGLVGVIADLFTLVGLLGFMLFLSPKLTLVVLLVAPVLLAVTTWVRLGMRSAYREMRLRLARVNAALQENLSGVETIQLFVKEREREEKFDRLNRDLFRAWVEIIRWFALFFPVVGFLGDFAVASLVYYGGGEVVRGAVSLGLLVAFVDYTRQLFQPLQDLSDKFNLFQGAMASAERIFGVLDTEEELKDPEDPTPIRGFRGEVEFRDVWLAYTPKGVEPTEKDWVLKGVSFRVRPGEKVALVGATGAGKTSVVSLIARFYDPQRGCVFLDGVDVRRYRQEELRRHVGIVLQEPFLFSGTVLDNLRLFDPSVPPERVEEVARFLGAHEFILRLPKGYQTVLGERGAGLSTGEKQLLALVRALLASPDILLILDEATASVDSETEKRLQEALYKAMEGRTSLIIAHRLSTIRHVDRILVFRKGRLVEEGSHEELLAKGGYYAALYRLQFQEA
T2 sequence 2: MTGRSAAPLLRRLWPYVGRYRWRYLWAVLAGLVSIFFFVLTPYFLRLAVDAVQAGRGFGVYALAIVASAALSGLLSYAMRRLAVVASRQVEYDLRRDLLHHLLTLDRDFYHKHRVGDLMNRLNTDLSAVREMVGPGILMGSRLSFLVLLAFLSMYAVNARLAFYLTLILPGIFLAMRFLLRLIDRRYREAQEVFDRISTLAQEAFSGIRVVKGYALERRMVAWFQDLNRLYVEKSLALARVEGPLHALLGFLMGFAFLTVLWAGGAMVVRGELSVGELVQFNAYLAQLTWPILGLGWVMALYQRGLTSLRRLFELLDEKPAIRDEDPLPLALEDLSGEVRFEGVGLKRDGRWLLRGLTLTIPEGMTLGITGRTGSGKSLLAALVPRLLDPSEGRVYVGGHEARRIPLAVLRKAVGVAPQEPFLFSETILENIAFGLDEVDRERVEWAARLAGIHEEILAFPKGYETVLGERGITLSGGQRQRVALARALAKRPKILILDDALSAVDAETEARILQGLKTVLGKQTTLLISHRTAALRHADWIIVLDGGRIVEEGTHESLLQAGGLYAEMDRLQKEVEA
The experiment is described as above. The note with it: both partners purified.

No end group written: not given here. fluorescein = fluorescein label attached to the Cys side chain

B1: fluorescent transport substrate peptide RRY(C^Fluorescein)KSTEL (peptide)
peptide: RRYC(fluorescein)KSTEL
notes: fluorescein-labelled transport substrate peptide of TmrAB; also called fluorescently-labeled peptide substrate; peptide substrate; source: bought: Genscript
B1: the binding result with TmrAB R132A^TmrA and with TmrAB D140A^TmrA was “binds” each time.
